The record followed here is the DeepSol protein solubility set.

This data set is described as follows: soluble on expression in E. coli; label from the status in PepcDB or PDB records.
For “MSLIPKIKDISVIECQPAGVRLTVVKITTDQDGLYGYGCATFTQRADLVKPAVERYLKPFLMGKTTDRIEDIWQSCYDSSYWKNGPVLNNAISGIDQALWDIKGRQAGLPVYQLAGGKCREAADCYAHADGADFPNVVEAAKRYMAQGFRHVRVQIGVPGMAGYGSSRGDTKVQALHSKPVFEPAYYVRRALKLFEVCRTELGEEIELLHDMHERVSPNQAVQFVKDAEKFKMFFMEDPLSPEDIAYFRQIRQQCATPIAMGELFNSPHEWTPLISERLIDYIRVHVSQAGGFTPARKIAILGETFGVKTAWHGPGDVSPIGHMANVTLDLVSYNFGIQEYSPFNGRTQEIFSGCPVMKDGYLYASEKPGWGIEVDEKLAAKAPFTDREGHHHHHH”, the “soluble on expression in E. coli” value was “not soluble”. The result for “MSLSLREEALHLHKVNQGKLESKSKVEVRNAKDLSLAYSPGVAEPCKDIHEDINKVYDYTMKGNMVAVVTDGTAVLGLGNIGPEAALPVMEGKAVLFKSFAGVDAFPIALNTNDVDKIVETVKLLEPTFGGVNLEDIAAPNCFIIEERLKKETNIPVFHDDQHGTAIVTVAGLVNALKLSGKSMSSIKVVANGAGAAGIAIIKLLHHYGVRDIVMCDSKGAIYEGRPNGMNDVKNEVAKFTNQDRKDGSLKDVIVDADVFIGVSVAGALTKEMVQSMAKDPIIFAMANPNPEIMPEDAREAGASVVGTGRSDFPNQVNNVLAFPGIFRGALDVRATHINEEMKIAAVEAIASLVSEDELSADYVIPAPFDKRVAPAVAKAVAKAAMETGVARITVDPEEVAEKTRKLTIIGEEGHHHHHH” reads “soluble”; that for “MGSDKIHHHHHHMMRDTPLLHRDDPAKDPLVGHIKVTREDWVNTARDVLVNSGVAQVKIATLAGRLDVSRSSFYWYFQNRDELLSALLQDWQTRNTRSITDHCARPSRSIAQALCNFFRCFVDTRQFDPGLDFAIREWARRNEDVRDAIDAADTARLDAVRAMFDRHDYAPEDADARARILYFMQLGYHALDLREDMETRMSRVSAYVLGFTGISPQNTDIEEFLDYVGDLAPHGISGASQRA”, “not soluble”; that for “MSLYRELMQKKNVRPYVLMARFGLEKENQRSTREGLLATTEHPTVFGNRSYHPYIQTDFSETQLELITPVANSGTEMLRFLDAIHDVARRSIPEDEMLWPLSMPPQLPTKDEEIKIAKLDQYDAVLYRRYLAKEYGKRKQMVSGIHFNFEYDQALIQQLYDEQSEVTDCKQFKTKVYMKVARNFLRYRWLITYLFGASPVSEDRYFRVYDDQPQEPVRSIRNSTYGYRNHDNVKVSYASLERYLEDIHRMVENGLLSEEKEFYAPVRLRGGKQMSDLPKTGIRYIELRNLDLNPFSRLGIVEDTVDFLHYFMLYLLWTDEKEEADEWVKTGDIFNEQVALGHPHETIKLIAEGDRIFSEMIDMLDALGIRKGKEVVGKYYQQLRNPQDTVSGKMWTIIQENSNSELGNIFGNQYQSMAFERPYQLAGFREMELSTQIFLFDAIQKGLEIEILDEQEQFLKLQHGEHIEYVKNANMTSKDNYVVPLIMENKTVTKKILSAAGFHVPGGEEFSSFIEAQEAHLRYANKAFVVKPKSTNYGLGITIFKEGASLEDFTEALRIAFKEDTAVLIEEFLPGTEYRFFVLDNDVKAIMLRVPANVTGDGKHTVEELVAAKNSDPLRGTNHRAPLELIQLNDLEKLMLKEQGLTIYSVPEKEQIVYLRENSNVSTGGDSIDMTDVIDDSYKQIAIEAVAALGAKICGIDLIIPDKDVKGTRDSLTYGIIEANFNPAMHMHVYPYAGQGRRLTMDVLKLLYPEVVQEGGSHHHHHH”, “soluble”. The result for “MGSDKIHHHHHHMKTNYRLHMQQGSDYLKKFLEKHIDLLKKIPLFEGIKSDELEEMLECLGVVDKTYPKDSIIFSVGSEVTSIGIMLKGSAHIIKEDIEGNRNIVAELLPGDLFGEVFACTRLHKSNVTVTTTSSCEVLFIKFKSVTGICSSTCVFHNRLVENMLQLIAEKNILLHNKIELLSRKTTREKLLMYFSKQIEQTGSHQFTIPFSRNEMADFLCVDRSSMSRELGKMRDEGLLSFNKNKFEIFYFKK” reads “not soluble”; that for “MAHHHHHHMQDVDEMKYLLPNLKQPITSIQVHSWTGTKESYILESKDYVLGEGMPEKCDAIATDCFLSGFTDIGKCFQCKLLMQEKNINDSCFKYVSSNQKELIKKQLKITAQDDEESSEYHLSESIKNLLKNIYKKNNDDNKKKELLHFENVNSALKSELLNYCNLLKEVNMNGVLKDHQLGNVQDVFNNLTKLLEEHKEENDNVLYHKMKNEALCLKNVNDWMKNKTGLLLPQLSYDLTYKNNNFTEFTQNKSYTSQNIVDKLYCNHEYCNRLKDHNNCISKINVEDQKNCALSWAFASKYHLETIKCMKGYEPLNASVLYVTNCLKNKNKDVCTEGSNPLVFLETIEEKGFLPTESNYPYDQSKVGDICPQLQNDWDNVFENTKVLDYNNGPFSVGTKGYIAYESEAFQKDMHSFVKLVKDEIMNKGSVIAYVKAENVLGYELNGKKVQNLCGDKTPDHVVNIVGYGNYINNKGEKKSYWIVRNSWGKYWGDDGYFKVDMYGPSTCEDNFIHTVVVFNVQVPINEKFDKKEHDIYNYYLKTSPEFYHNLYYKTFNSNKEEKSMNKNSYVYGQDTTPVENEAPRSGVQKPTELSSTESQTVSPPNESQTESLLSGGSQVTNPTLTQSTSSSSGQQETGPLSTQGLSPATGDPKGKEQEASPAEGLSGVLNPTKEVTSEEKIQIIHLLKHIKNSKIRRGLVKYNHEFEVGDNSCSRSTSKNAEMHDECVNICEKYWPECRGTAVPGYCLSTHDDKNECDFCYV”, “not soluble”.

In the case of “MSLKPVIGITGNRLVKGVDVFYGHRVTYTQQRYVDAIQKVGGFPIALPIDDPSTAVQAISLVDGLLLTGGQDITPQLYLEEPSQEIGAYFPPRDSYEIALVRAALDAGKPIFAICRGMQLVNVALGGTLYQDISQVETKALQHLQRVDEQLGSHTIDIEPTSELAKHHPNKKLVNSLHHQFIKKLAPSFKVTARTADGMIEAVEGDNLPSWYLGVQWHPELMFQTDPESEQLFQALVDESKKTMVKEGHHHHHH”, the “soluble on expression in E. coli” value is “soluble”. The result for “MGHHHHHHSHMEDSHKSTTSETAPQPGSAVQGAHISHIAQQVSSLSESEESQDSSDSIGSSQKAHGILARRPSYRKILKDLSSEDTRGRKGDGENSGVSAAVTSMSVPTPIYQTSSGQYIAIAPNGALQLASPGTDGVQGLQTLTMTNSGSTQQGTTILQYAQTSDGQQILVPSNQVVVQTASGDMQTYQIRTTPSATSLPQTVVMTSPVTLTSQTTKTDDPQLKREIRLMKNREAARECRRKKKEYVKCLENRVAVLENQNKTLIEELKTLKDLYSNKSV” reads “soluble”; that for “SLRIEHFETISCDAGWRNYYFLKVVTSDGIVGWSEYDESFGPPGLTAVIEQLGARLVGKSVYDHEEAYGRLAASLRPAPYGLSAEAIGAIENALLDAKAKSLGLPVYQLLGGKHRGSIPIYWSHCATWRISHPNLYPPAIVDLDGVKKAGEDARKSGISALKTNLFINENGKPRQWMAGFGSPYAPSLNVDKALLRNLRAHLEALRDGAGPDVDILVDLNFNARTEGYLSLINAIKDFDLFWVELDIYNPDAMAYIRQRSHAPIAACETLFGIRQFLPYFQAQSMDVAIVDAVWNGVWQAMKIASVADAFDVNIAPHNFYSHLSTMMNVHFAAAVPNLRVMEVDVDRLAWDDQLFTRTPEIVNGAIQVPDAPGWGCDPIEEALRAHPPQVRRSHLGL”, “soluble”. With “MGSDKIHHHHHHMTGAQPVILGDMPSLSKLYVNAAATAARRRVLGTGTGISLPPCGHEVRGVVADVGNLTAFQHLVGETASDTLPAGFIHALAFPVSMSVMNRDDFPLPLLGMVHLKNKVEQHGTILFTEALDITSWAESLRGHRAGTQVDIVAEVRRSGDAKVLWKGTSTYLAKGVFLPGIDKPSVPAPPATFSAPDPTALWELGVDTGRAYAAVSGDFNPIHLSVLSAKALGLRRSIAHGMYLASRALADVGAVKGESFSWEVSFETPVFLPARVALDISSVDSPSGAWQHSDYAAWNPRSGRRHFSGSVTALQGQD” the entry was “not soluble”.
